Data from US20220125898A1, “PAR2 MODULATION AND METHODS THEREOF” (JANSSEN BIOTECH, INC., priority 2019, published 2022).

Legend:
Experiment in all cases: cell-based or functional assay
[1] = molecular target: T1, PAR2 endogenously expressed in HEK293 cells (human, UniProt P55085 37-397)
T1 sequence (looked up): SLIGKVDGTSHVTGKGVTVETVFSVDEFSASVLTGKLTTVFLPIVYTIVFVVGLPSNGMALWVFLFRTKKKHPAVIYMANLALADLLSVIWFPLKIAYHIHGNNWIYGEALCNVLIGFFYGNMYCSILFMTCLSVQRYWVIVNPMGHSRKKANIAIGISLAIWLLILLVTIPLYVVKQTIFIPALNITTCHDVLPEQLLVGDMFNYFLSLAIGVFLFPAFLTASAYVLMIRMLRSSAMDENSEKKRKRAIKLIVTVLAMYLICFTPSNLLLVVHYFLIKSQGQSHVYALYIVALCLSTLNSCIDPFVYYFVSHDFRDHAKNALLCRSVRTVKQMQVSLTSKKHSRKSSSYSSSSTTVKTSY

[2] = molecular target: T2, PAR2 with the signal peptide deleted (PAR2ΔSP) (human, UniProt P55085 37-397)
T2 sequence: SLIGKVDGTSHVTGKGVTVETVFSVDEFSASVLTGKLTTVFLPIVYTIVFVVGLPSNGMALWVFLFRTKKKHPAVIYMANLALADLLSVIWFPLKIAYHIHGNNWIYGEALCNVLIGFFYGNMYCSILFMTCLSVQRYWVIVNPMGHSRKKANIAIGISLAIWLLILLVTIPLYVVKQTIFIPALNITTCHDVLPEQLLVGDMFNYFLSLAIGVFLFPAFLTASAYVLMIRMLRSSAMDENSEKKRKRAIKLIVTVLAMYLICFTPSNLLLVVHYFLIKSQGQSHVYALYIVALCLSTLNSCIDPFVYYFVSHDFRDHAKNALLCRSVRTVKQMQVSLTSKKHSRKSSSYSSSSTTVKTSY

[3] = molecular target: T3, Human PAR2 wild type, recombinantly expressed in HEK293 cells with par1 and par2 knocked-out (human, UniProt P55085 37-397)
T3 sequence: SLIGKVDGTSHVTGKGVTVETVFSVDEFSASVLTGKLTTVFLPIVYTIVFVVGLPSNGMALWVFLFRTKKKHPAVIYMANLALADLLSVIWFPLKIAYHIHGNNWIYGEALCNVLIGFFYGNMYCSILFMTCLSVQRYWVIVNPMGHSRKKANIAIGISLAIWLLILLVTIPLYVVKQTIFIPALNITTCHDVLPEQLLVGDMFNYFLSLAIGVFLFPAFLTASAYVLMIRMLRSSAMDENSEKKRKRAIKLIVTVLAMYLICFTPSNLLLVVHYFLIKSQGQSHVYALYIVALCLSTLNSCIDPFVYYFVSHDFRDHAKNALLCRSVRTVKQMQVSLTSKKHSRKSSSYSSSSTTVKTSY

SLIGKV [PAR2 agonist peptide ligand, SLIGKV]
EC50, FLIPR intracellular Ca2+ mobilization [1]: 1500 nM | EC50, FLIPR intracellular Ca2+ mobilization [2]: 5800 nM | EC50, FLIPR intracellular Ca2+ mobilization, cells treated with protease inhibitor cocktail [2]: 700 nM | EC50, FLIPR intracellular Ca2+ mobilization [3]: 50 nM
